Our source for the self-aminoacylation values is the supplement of paper PMC9233669.

The subject of one series is biotinyl-Phe-oxazolone. Briefly: self-aminoacylation, catalytic enhancement (BFO) (fold over background); higher = more active; k-Seq, kA / k0A0; sequences stand for … in GGGAAUGGAUCCACAUCUACGAAUUC…UUCACUGCAGACUUGACGAAGCUG
The essentials:
(§1)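 Catalytic enhancement equals the median kA over the uncatalyzed rate, the latter read from the low-activity peak of a bimodal Gaussian fit. Values of kA came from fitting each sequence's fraction reacted to a pseudo-first-order model, with 1000 bootstraps. Reacted RNA was captured with streptavidin and quantified by triplicate qPCR and Illumina sequencing after 90 minutes at room temperature with 2–1250 μM biotinyl-aminoacyl-oxazolone and 0.43 μM mutagenized RNA pools bearing a 21-nt variable region.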

The next series relates to biotinyl-Leu-oxazolone. Briefly: self-aminoacylation, catalytic enhancement (BLO) (fold over background); higher = more active; k-Seq, kA / k0A0; sequences stand for … in GGGAAUGGAUCCACAUCUACGAAUUC…UUCACUGCAGACUUGACGAAGCUG
The essentials: as §1

Another series deals with biotinyl-Trp-oxazolone. The experiment in a line: self-aminoacylation, catalytic enhancement (BWO) (fold over background); higher = more active; k-Seq, kA / k0A0; sequences stand for … in GGGAAUGGAUCCACAUCUACGAAUUC…UUCACUGCAGACUUGACGAAGCUG
A digest of the protocol: as §1

For the next series, the system named is biotinyl-Val-oxazolone. The experiment in a line: self-aminoacylation, catalytic enhancement (BVO) (fold over background); higher = more active; k-Seq, kA / k0A0; sequences stand for … in GGGAAUGGAUCCACAUCUACGAAUUC…UUCACUGCAGACUUGACGAAGCUG
A digest of the protocol: as §1

The next series has as its system biotinyl-Ile-oxazolone. The experiment in a line: self-aminoacylation, catalytic enhancement (BIO) (fold over background); higher = more active; k-Seq, kA / k0A0; sequences stand for … in GGGAAUGGAUCCACAUCUACGAAUUC…UUCACUGCAGACUUGACGAAGCUG
The essentials:
as §1

A further series relates to biotinyl-Met-oxazolone. The experiment in a line: self-aminoacylation, catalytic enhancement (BMO) (fold over background); higher = more active; k-Seq, kA / k0A0; sequences stand for … in GGGAAUGGAUCCACAUCUACGAAUUC…UUCACUGCAGACUUGACGAAGCUG
A digest of the protocol: as §1

Variants at the floor of the assay were thinned out.

On to “AAGUGUGCUAUUAGUCGCAAG [Fam3.1 aminoacylation ribozyme variant]”, for which the self-aminoacylation worked out at 2.19 in the series with biotinyl-Phe-oxazolone; 0.947 with biotinyl-Leu-oxazolone; 0.997 with biotinyl-Trp-oxazolone; 1.43 with biotinyl-Val-oxazolone; 1.29 in the series on biotinyl-Ile-oxazolone; 1.36 in the series on biotinyl-Met-oxazolone.
On to “AAGUGUGCUGAUAGUCGCAAG [Fam3.1 aminoacylation ribozyme variant]”, for which the self-aminoacylation was found to be 2.85 with biotinyl-Phe-oxazolone; 1.42 with biotinyl-Leu-oxazolone; 1.38 in the series with biotinyl-Trp-oxazolone; 1.24 with biotinyl-Val-oxazolone; 1.53 with biotinyl-Ile-oxazolone; 1.74 in the series with biotinyl-Met-oxazolone.
As to “AAGUUAGCUAAUGGUCGCAAG [Fam3.1 aminoacylation ribozyme variant]”, the self-aminoacylation in the series with biotinyl-Phe-oxazolone turned out to be 1.77; with biotinyl-Leu-oxazolone, 1.17; in the series on biotinyl-Trp-oxazolone, 1.55; with biotinyl-Val-oxazolone, 1.08; with biotinyl-Ile-oxazolone, 1.22; with biotinyl-Met-oxazolone, 1.3.
On to “AAGUUAGCUAUUAGUCGCAAG [Fam3.1 aminoacylation ribozyme variant]”, for which the self-aminoacylation in the series on biotinyl-Phe-oxazolone stood at 2.06; in the series with biotinyl-Leu-oxazolone, 1.82; in the series with biotinyl-Trp-oxazolone, 1.74; with biotinyl-Val-oxazolone it was 1.6; with biotinyl-Ile-oxazolone, 1.99; in the series on biotinyl-Met-oxazolone, 1.34.
For “AAGUUCGCUAAUAGUCACAAG [Fam3.1 aminoacylation ribozyme variant]”, the self-aminoacylation in the series on biotinyl-Phe-oxazolone stood at 3.01; in the series with biotinyl-Leu-oxazolone it was 1.6; with biotinyl-Trp-oxazolone, 1.64; in the series with biotinyl-Val-oxazolone it was 1.25; with biotinyl-Ile-oxazolone, 1.59; with biotinyl-Met-oxazolone, 1.56.
Take “AAGUUCGCUAAUAGUCGCAUG [Fam3.1 aminoacylation ribozyme variant]”: the self-aminoacylation was 8.49 with biotinyl-Phe-oxazolone; 2.88 in the series on biotinyl-Leu-oxazolone; 3.05 with biotinyl-Trp-oxazolone; 2.37 with biotinyl-Val-oxazolone; 2.16 in the series on biotinyl-Ile-oxazolone; 2.27 with biotinyl-Met-oxazolone.
For “AAGUUGGCUAAUAAUCGCAAG [Fam3.1 aminoacylation ribozyme variant]”, the self-aminoacylation in the series with biotinyl-Phe-oxazolone amounted to 2.15; in the series on biotinyl-Leu-oxazolone it was 1.34; in the series on biotinyl-Trp-oxazolone, 2.04; with biotinyl-Val-oxazolone, 1.67; in the series on biotinyl-Ile-oxazolone, 1.72; in the series with biotinyl-Met-oxazolone, 1.29.
For “AAGUUGGCUAAUAGUCGCAAC [Fam3.1 aminoacylation ribozyme variant]”, the self-aminoacylation was found to be 2.17 with biotinyl-Phe-oxazolone; 1.42 in the series with biotinyl-Leu-oxazolone; 1.93 in the series on biotinyl-Trp-oxazolone; 1.4 in the series on biotinyl-Val-oxazolone; 1.75 in the series with biotinyl-Ile-oxazolone; 1.31 in the series on biotinyl-Met-oxazolone.
On to “AAGUUGGCUAAUAGUCGCAAU [Fam3.1 aminoacylation ribozyme variant]”, for which the self-aminoacylation with biotinyl-Phe-oxazolone was determined as 2.72; in the series on biotinyl-Leu-oxazolone, 1.71; with biotinyl-Trp-oxazolone, 2.93; in the series on biotinyl-Val-oxazolone, 1.7; in the series on biotinyl-Ile-oxazolone it was 2.15; in the series on biotinyl-Met-oxazolone it was 1.32.
As to “AAGUUGGCUAAUAGUCGCACG [Fam3.1 aminoacylation ribozyme variant]”, the self-aminoacylation in the series on biotinyl-Phe-oxazolone is 2.62; with biotinyl-Leu-oxazolone, 1.81; in the series on biotinyl-Trp-oxazolone, 2.11; in the series with biotinyl-Val-oxazolone it was 1.63; in the series on biotinyl-Ile-oxazolone, 1.35; in the series on biotinyl-Met-oxazolone, 1.61.
“AAGUUGGCUAAUAGUCGGAAG [Fam3.1 aminoacylation ribozyme variant]”: the self-aminoacylation in the series on biotinyl-Phe-oxazolone was 2.31; in the series with biotinyl-Leu-oxazolone it was 1.1; in the series with biotinyl-Trp-oxazolone, 1.15; in the series with biotinyl-Val-oxazolone it was 1.48; with biotinyl-Ile-oxazolone it was 1.47; with biotinyl-Met-oxazolone, 1.22.
Turning to “AAGUUGGCUAAUAGUUGCAAG [Fam3.1 aminoacylation ribozyme variant]”, the self-aminoacylation in the series on biotinyl-Phe-oxazolone was found to be 1.86; in the series with biotinyl-Leu-oxazolone, 1.09; in the series with biotinyl-Trp-oxazolone, 1.92; with biotinyl-Val-oxazolone, 1.29; with biotinyl-Ile-oxazolone, 1.39; with biotinyl-Met-oxazolone, 1.53.
As to “AAGUUGGCUAAUAUUCGCAAG [Fam3.1 aminoacylation ribozyme variant]”, the self-aminoacylation in the series with biotinyl-Phe-oxazolone came to 2.07; in the series on biotinyl-Leu-oxazolone, 2.11; in the series on biotinyl-Trp-oxazolone it was 3.02; with biotinyl-Val-oxazolone it was 2.09; with biotinyl-Ile-oxazolone it was 2.32; in the series on biotinyl-Met-oxazolone, 1.85.
For “AAGUUUACUAAGAGUCGCAAG [Fam3.1 aminoacylation ribozyme variant]”, the self-aminoacylation came to 1.93 in the series with biotinyl-Phe-oxazolone; 1.36 with biotinyl-Leu-oxazolone; 1.69 with biotinyl-Trp-oxazolone; 1.36 in the series on biotinyl-Val-oxazolone; 1.47 in the series on biotinyl-Ile-oxazolone; 1.37 with biotinyl-Met-oxazolone.
Take “AAGUUUACUAAUACUCGCAAG [Fam3.1 aminoacylation ribozyme variant]”: the self-aminoacylation with biotinyl-Phe-oxazolone was 1.55; in the series with biotinyl-Leu-oxazolone, 1.06; in the series on biotinyl-Trp-oxazolone, 1.37; in the series on biotinyl-Val-oxazolone it was 1.18; in the series on biotinyl-Ile-oxazolone, 1.26; in the series on biotinyl-Met-oxazolone it was 1.18.
For “AAGUUUACUAAUAGUCGCAAU [Fam3.1 aminoacylation ribozyme variant]”, the self-aminoacylation in the series with biotinyl-Phe-oxazolone was found to be 3.51; in the series with biotinyl-Leu-oxazolone it was 1.42; in the series on biotinyl-Trp-oxazolone it was 1.99; with biotinyl-Val-oxazolone, 1.6; in the series with biotinyl-Ile-oxazolone, 1.86; in the series with biotinyl-Met-oxazolone it was 1.48.
Turning to “AAGUUUACUAAUAGUCGCGAG [Fam3.1 aminoacylation ribozyme variant]”, the self-aminoacylation in the series with biotinyl-Phe-oxazolone was 2.41; with biotinyl-Leu-oxazolone, 1.91; in the series with biotinyl-Trp-oxazolone, 1.54; in the series with biotinyl-Val-oxazolone, 1.22; in the series on biotinyl-Ile-oxazolone, 1.83; in the series with biotinyl-Met-oxazolone it was 1.59.
In the case of “AAGUUUACUAAUAUUCGCAAG [Fam3.1 aminoacylation ribozyme variant]”, the self-aminoacylation with biotinyl-Phe-oxazolone was 2.42; in the series on biotinyl-Leu-oxazolone it was 1.44; in the series with biotinyl-Trp-oxazolone it was 2.23; in the series on biotinyl-Val-oxazolone, 1.66; in the series with biotinyl-Ile-oxazolone, 1.67; in the series with biotinyl-Met-oxazolone it was 1.31.
Turning to “AAGUUUACUAGUAGUCGCAAG [Fam3.1 aminoacylation ribozyme variant]”, the self-aminoacylation in the series on biotinyl-Phe-oxazolone is 1.48; in the series on biotinyl-Leu-oxazolone it was 1.29; with biotinyl-Trp-oxazolone, 1.29; with biotinyl-Val-oxazolone it was 1.14; in the series on biotinyl-Ile-oxazolone, 1.44; in the series on biotinyl-Met-oxazolone it was 1.53.
Turning to “AAGUUUAGUAAUAGUCGCAAG [Fam3.1 aminoacylation ribozyme variant]”, the self-aminoacylation with biotinyl-Phe-oxazolone amounted to 3.24; in the series with biotinyl-Leu-oxazolone it was 1.71; in the series with biotinyl-Trp-oxazolone, 1.23; with biotinyl-Val-oxazolone, 1.55; in the series on biotinyl-Ile-oxazolone, 1.85; in the series with biotinyl-Met-oxazolone, 1.75.
With “AAGUUUCCUAAUACUCGCAAG [Fam3.1 aminoacylation ribozyme variant]”, the self-aminoacylation in the series with biotinyl-Phe-oxazolone was determined as 0.584; in the series with biotinyl-Leu-oxazolone it was 0.891; in the series on biotinyl-Trp-oxazolone, 0.555; in the series with biotinyl-Val-oxazolone it was 0.889; with biotinyl-Ile-oxazolone, 0.862; with biotinyl-Met-oxazolone, 1.
Consider “AAGUUUCCUAAUAGUAGCAAG [Fam3.1 aminoacylation ribozyme variant]”, for which the self-aminoacylation with biotinyl-Phe-oxazolone came out at 1.11; in the series on biotinyl-Leu-oxazolone, 1.12; in the series on biotinyl-Trp-oxazolone, 0.808; in the series on biotinyl-Val-oxazolone, 1.05; with biotinyl-Ile-oxazolone, 1.28; in the series on biotinyl-Met-oxazolone it was 1.17.
For the sequence “AAGUUUCCUAAUAGUCGAAAG [Fam3.1 aminoacylation ribozyme variant]”, the self-aminoacylation with biotinyl-Phe-oxazolone is 2.75; in the series with biotinyl-Leu-oxazolone it was 1.44; in the series with biotinyl-Trp-oxazolone, 1.76; in the series on biotinyl-Val-oxazolone it was 1.14; in the series on biotinyl-Ile-oxazolone, 1.45; with biotinyl-Met-oxazolone, 1.1.
With “AAGUUUCCUAAUAGUCGCGAG [Fam3.1 aminoacylation ribozyme variant]”, the self-aminoacylation with biotinyl-Phe-oxazolone was found to be 3.66; in the series with biotinyl-Leu-oxazolone, 2.26; with biotinyl-Trp-oxazolone, 2.04; in the series on biotinyl-Val-oxazolone it was 2.48; in the series on biotinyl-Ile-oxazolone, 2.47; with biotinyl-Met-oxazolone, 2.04.
On to “AAGUUUCCUAAUAUUCGCAAG [Fam3.1 aminoacylation ribozyme variant]”, for which the self-aminoacylation was determined as 0.549 in the series on biotinyl-Phe-oxazolone; 0.935 in the series with biotinyl-Leu-oxazolone; 0.649 in the series on biotinyl-Trp-oxazolone; 0.841 with biotinyl-Val-oxazolone; 0.935 with biotinyl-Ile-oxazolone; 0.987 in the series on biotinyl-Met-oxazolone.
